{
  "source": "patent US20160039883A1",
  "about": "(AstraZeneca / MedImmune, published 2016)",
  "binders": {"B1": {"name": "palivizumab (antibody, V domains shown)", "VH": "QVTLRESGPALVKPTQTLTLTCTFSGFSLSTSGMSVGWIRQPPGKALEWLADIWWDDKKDYNPSLKSRLTISKDTSKNQVVLKVTNMDPADTATYYCARSMITNWYFDVWGAGTTVTVSS", "VL": "DIQMTQSPSTLSASVGDRVTITCKCQLSVGYMHWYQQKPGKAPKLLIYDTSKLASGVPSRFSGSGSGTEFTLTISSLQPDDFATYYCFQGSGYPFTFGGGTKLEIK"}},
  "key": {"[1]": {"molecular_target": "RSV fusion (F) protein on RSV virus (respiratory syncytial virus, UniProt P03420 26-574)", "experiment": "cell-based or functional assay"}, "[2]": {"molecular_target": "VLP097", "experiment": "ELISA, VLP-coated wells, 0.5 µg/ml palivizumab, OD relative to sF-coated wells"}, "[3]": {"molecular_target": "VLP099", "experiment": "ELISA, VLP-coated wells, 0.5 µg/ml palivizumab, OD relative to sF-coated wells"}, "[4]": {"molecular_target": "VLP098", "experiment": "ELISA, VLP-coated wells, 0.5 µg/ml palivizumab, OD relative to sF-coated wells"}, "[5]": {"molecular_target": "VLP059", "experiment": "ELISA, VLP-coated wells, 0.5 µg/ml palivizumab, OD relative to sF-coated wells"}, "[6]": {"molecular_target": "VLP019", "experiment": "ELISA, VLP-coated wells, 0.5 µg/ml palivizumab, OD relative to sF-coated wells"}},
  "data": [
    {"binder": "B1", "values": [
      {"measurement": "PRNT as measured by the IC50 point", "setting": "[1]", "value": "~0.5", "unit": "µg/mL"},
      {"measurement": "Palivizumab binding in vitro (sF = 100%)", "setting": "[2]", "value": 112, "unit": "%"},
      {"measurement": "Palivizumab binding in vitro (sF = 100%)", "setting": "[3]", "value": 95, "unit": "%"},
      {"measurement": "Palivizumab binding in vitro (sF = 100%)", "setting": "[4]", "value": 47, "unit": "%"},
      {"measurement": "Palivizumab binding in vitro (sF = 100%)", "setting": "[5]", "value": 83, "unit": "%"},
      {"measurement": "Palivizumab binding in vitro (sF = 100%)", "setting": "[6]", "value": 100, "unit": "%"}
    ]}
  ]
}
